Laboratory results as given in patent US20210388116A1 (University of California, published 2021).
Where no end group is shown, it is not given here. The star is where a group is joined. Biotin = O=C1N[C@H]2[C@H](CS[C@H]2CCCCC(=O)*)N1

Experiments:
[1] = target: T1, G6A/OxCE reaction product (biotin-GDGDGA peptide subjected to the OxCE modification procedure); assay: peptide ELISA on streptavidin plates
T1 construct: Negative control peptide in which the C-terminal Lys is replaced with Ala
T1 peptide: Biotin-GDGDGA
Description: Biotinylated short peptides G6A-OH, G6K-OH (non-modified) or G6K-OxCE (modified with OxCE) were immobilized to streptavidin pre-coated plates (Eagle Biosciences, Amherst, N.H.), at 10 μg/mL in PBS, overnight at 4° C. After washing with PBS, AG23 was added at 1 μg/mL in 1% BSA-TBS and incubated at room temperature for 90 min. The remaining ELISA was completed as described above.

[2] = target: T2, copper oxidized LDL (CuOxLDL) (human, UniProt P04114 28-4563, limits assumed, copper-oxidized; enriched in oxidized phospholipid (OxPL); positions not stated); assay: chemiluminescent ELISA on plated antigen
T2 construct: A modified lipoprotein particle (protein plus lipid), prepared as in Gonen et al
Description: Representative gel and blots from 20 repeats. (B) Representative results of AG23 (0.125 μg/mL) binding to BSA, OxCE-BSA, MDA-LDL and CuOxLDL (5 μg/mL). Four different OxCE-BSA preparations were tested in 12 independent experiments, with AG23 concentrations ranging from […]. […] Mean±SD; one-way ANOVA with multiple comparisons; ****, P<0.0001. (C) Competition ELISA: AG23 (0.01 μg/mL) was preincubated in the absence or presence of increasing concentrations of non-modified KLH or OxCE-KLH. Immune complexes were spun down, and supernatants were tested for binding to OxCE-BSA (5 μg/mL). Each data point is the mean of two independent assays in technical triplicates. (D) AG23 (1 μg/mL) binding to 10 μg/mL of non-modified G6K-OH and G6A-OH peptides, and the peptides subjected to the OxCE covalent modification. […] Mean±SD; n=6 for G6K and n=2 for G6A, each in technical duplicates; one-way ANOVA with multiple comparisons; **, P<0.01. (E-F) AG23 (0.15 μg/mL) was preincubated overnight with non-modified (250 μg/mL) or OxCE-modified (10-250 μg/mL) BSA or GDGDGK-OH peptide. […] After washes, AG23 binding to the wells was measured. […]
Monoclonal antibody binding to an array of epitopes was measured by chemiluminescent ELISA as described in Gonen et al. In brief, wells were coated with antigens at 5 μg/mL in PBS overnight at 4° C. […]

T2 sequence (P04114 28-4563 limits assumed): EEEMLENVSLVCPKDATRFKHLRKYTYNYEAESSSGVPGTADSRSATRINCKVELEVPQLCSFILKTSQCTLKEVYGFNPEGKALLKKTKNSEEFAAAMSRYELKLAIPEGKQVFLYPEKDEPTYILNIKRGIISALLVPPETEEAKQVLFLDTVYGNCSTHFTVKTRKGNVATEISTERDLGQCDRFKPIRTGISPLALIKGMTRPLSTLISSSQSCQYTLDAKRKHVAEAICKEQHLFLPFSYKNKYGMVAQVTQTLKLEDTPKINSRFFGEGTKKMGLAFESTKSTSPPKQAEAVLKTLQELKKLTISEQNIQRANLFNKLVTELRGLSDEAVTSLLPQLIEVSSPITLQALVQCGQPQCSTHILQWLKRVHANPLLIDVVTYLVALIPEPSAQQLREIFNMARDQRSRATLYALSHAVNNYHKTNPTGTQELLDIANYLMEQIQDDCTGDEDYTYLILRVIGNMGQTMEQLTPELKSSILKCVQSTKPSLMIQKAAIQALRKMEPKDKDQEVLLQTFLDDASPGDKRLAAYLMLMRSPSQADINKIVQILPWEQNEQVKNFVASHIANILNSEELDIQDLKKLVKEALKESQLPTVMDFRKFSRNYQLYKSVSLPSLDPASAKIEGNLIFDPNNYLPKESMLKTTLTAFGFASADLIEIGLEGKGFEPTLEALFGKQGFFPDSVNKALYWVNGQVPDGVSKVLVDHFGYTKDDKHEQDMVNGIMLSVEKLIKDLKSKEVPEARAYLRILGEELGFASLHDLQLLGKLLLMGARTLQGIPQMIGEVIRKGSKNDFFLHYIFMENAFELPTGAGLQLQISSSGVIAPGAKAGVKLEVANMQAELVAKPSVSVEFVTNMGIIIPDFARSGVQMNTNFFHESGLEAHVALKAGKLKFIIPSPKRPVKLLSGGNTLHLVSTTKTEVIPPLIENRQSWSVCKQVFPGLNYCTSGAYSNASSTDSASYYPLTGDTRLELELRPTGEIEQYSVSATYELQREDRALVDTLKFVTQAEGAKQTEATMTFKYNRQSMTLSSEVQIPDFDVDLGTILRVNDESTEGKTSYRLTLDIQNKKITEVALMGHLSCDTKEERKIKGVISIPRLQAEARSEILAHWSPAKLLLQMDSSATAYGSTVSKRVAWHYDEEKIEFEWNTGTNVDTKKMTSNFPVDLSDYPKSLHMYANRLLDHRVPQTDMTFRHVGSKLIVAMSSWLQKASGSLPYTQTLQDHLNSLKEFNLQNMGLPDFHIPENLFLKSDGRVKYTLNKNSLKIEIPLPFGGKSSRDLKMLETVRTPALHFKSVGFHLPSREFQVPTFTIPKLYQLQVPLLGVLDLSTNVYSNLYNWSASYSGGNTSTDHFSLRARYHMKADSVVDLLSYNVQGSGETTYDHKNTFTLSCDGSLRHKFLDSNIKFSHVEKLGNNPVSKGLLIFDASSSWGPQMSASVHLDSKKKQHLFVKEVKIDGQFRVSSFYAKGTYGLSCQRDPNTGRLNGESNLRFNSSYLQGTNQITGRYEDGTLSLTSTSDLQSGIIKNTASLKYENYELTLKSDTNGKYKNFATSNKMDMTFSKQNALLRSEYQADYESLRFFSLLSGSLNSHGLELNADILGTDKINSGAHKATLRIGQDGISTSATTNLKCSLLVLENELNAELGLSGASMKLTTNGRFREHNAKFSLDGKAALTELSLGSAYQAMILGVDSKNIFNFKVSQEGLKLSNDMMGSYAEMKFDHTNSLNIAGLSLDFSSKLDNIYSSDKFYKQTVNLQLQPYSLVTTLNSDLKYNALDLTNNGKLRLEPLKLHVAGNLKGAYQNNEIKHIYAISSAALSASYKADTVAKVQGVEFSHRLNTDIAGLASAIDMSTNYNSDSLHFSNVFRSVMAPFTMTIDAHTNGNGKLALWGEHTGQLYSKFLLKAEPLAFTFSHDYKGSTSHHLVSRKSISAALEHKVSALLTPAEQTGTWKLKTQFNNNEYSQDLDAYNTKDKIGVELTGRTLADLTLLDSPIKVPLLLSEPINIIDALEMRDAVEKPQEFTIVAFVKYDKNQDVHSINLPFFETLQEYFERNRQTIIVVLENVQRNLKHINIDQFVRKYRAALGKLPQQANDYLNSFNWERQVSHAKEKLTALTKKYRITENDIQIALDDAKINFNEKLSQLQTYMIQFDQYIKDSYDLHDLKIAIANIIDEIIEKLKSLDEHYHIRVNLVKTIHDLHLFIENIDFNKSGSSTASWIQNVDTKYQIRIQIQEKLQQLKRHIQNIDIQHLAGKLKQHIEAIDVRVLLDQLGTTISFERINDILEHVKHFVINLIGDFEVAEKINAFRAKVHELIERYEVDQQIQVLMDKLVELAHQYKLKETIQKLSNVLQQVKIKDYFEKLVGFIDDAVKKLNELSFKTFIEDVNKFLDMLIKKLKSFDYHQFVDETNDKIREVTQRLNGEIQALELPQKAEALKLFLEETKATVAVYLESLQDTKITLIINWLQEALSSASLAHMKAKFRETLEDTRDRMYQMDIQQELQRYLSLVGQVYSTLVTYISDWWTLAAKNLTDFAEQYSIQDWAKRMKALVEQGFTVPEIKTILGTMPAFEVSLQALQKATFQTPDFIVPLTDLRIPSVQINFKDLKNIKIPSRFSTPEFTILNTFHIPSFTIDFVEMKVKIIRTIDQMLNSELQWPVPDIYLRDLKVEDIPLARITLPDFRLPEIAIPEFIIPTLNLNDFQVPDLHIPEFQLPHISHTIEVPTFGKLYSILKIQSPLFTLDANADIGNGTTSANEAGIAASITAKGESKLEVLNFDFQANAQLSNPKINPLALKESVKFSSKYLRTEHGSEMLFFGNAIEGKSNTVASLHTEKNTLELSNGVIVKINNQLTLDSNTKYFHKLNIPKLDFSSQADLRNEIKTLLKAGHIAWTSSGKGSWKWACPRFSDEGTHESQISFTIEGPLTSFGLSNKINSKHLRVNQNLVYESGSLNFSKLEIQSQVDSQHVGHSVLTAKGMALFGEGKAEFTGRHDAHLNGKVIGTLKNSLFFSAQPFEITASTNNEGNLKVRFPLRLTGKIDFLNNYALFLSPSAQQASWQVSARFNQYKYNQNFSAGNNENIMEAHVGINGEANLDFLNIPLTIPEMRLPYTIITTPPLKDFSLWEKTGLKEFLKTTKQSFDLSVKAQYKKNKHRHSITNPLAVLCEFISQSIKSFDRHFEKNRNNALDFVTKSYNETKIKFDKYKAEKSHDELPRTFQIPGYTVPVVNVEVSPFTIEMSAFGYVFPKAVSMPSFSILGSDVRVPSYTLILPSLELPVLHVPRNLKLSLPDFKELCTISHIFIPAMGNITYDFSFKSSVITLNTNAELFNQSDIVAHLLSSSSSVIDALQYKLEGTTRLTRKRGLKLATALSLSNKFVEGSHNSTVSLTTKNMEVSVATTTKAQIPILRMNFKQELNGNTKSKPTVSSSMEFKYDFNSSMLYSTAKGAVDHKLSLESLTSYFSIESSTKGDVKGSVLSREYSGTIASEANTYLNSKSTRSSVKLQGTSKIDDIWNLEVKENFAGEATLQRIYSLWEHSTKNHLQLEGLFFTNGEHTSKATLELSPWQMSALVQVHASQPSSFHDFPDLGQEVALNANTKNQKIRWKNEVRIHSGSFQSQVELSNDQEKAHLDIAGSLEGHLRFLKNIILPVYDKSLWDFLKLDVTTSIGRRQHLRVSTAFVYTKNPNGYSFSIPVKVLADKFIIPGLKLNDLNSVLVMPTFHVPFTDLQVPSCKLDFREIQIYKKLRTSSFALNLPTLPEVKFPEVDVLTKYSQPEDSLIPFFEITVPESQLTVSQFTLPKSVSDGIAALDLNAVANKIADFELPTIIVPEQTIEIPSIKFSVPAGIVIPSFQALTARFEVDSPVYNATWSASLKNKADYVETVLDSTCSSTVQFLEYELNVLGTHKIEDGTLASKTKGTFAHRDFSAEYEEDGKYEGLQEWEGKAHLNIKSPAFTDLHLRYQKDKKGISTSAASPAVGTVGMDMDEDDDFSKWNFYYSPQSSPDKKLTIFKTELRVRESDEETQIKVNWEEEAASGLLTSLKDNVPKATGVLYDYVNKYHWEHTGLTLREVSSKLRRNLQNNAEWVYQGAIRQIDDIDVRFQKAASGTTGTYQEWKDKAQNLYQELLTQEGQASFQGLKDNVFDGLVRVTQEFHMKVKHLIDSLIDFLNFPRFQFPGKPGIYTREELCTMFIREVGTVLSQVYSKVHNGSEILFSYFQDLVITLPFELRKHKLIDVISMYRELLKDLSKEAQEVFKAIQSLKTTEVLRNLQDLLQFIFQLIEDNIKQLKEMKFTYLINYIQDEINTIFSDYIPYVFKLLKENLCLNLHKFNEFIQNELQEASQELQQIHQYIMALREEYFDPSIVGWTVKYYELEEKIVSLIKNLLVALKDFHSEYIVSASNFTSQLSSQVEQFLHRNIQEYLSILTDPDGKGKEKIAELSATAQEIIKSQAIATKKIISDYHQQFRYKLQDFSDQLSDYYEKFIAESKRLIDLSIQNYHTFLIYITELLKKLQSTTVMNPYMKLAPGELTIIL

B1: monoclonal Ab (mAb) AG23 (antibody, mouse IgG1, kappa, V domains shown)
VH: EVQLQQSGPELVKPGASVKISCKASGYSFTGYYMNWVRQSPEKNLEWIGEINPYTGGTTYNQKFKARATLTVDKSSSTAYVQLKSLTSEDSAVYFCVSWDYDLDYWGQGTTLTVSS
VL: QIVLTQSPAFMSASPGEKVTMTCSASSSVSYMHWYQQKSGTSPKRWIYATSKVASGVPARFSGSGSGTSYSLTISSMEAEDAATYYCLQWSSNPYTFGGGTKLEIKR
notes: Murine hybridoma IgG purified over Protein A/G; Used biotinylated in some sandwich ELISAs; also called Clone 23; colony #23
[1]
  binding result: no binding (tested: AG23 1 µg/mL; peptide 10 µg/mL)
[2]
  binding result: no binding (tested: AG23 0.125 µg/mL; antigen 5 µg/mL)
